B1: EEHEE_rd4_0469 (parent)
chain: ITIHVNGVTYHFDNPEEAEKFAQKMAKTYQLKMEIHNGEFHME

Variants of: B1
Assay: folding stability dG (cDNA display proteolysis); higher = more stable
Settings: PBS, room temperature

Folding stability dG [kcal/mol]: each site, then its substitutions
T28: V 1.22 | W 1.95 | Y 1.91
Y29: A 1.07 | C 2.3 | D 1.59 | E 1.6 | F 0.965 | G 1.59 | H 1.45 | I 0.788 | K 0.768 | L 1.17 | M 0.899 | N 1.29 | P 1.7 | Q 1.05 | R 0.657 | S 1.05 | T 1.05 | V 0.848 | W 0.793
Q30: A 1.02 | D 1.08 | E 1.21 | F 1.14 | G 1.5 | H 1.43 | I 0.708 | K 1.12 | L 0.853 | M 0.881 | N 1.17 | P 1.53 | R 0.814 | S 0.808 | T 0.699 | V 0.688 | W 1.11 | Y 1.14
L31: A 0.799 | C 2.3 | D 1.3 | E 1.29 | F 1.1 | G 1.02 | H 0.984 | I 1.15 | K 0.692 | M 1.01 | N 1 | P 1.13 | Q 0.833 | R 0.214 | S 0.767 | T 0.775 | V 1.28 | W 0.829 | Y 1.14
K32: A 1.37 | D 1.31 | E 1.48 | F 1.44 | G 1.13 | H 1.48 | I 1.66 | L 1.52 | M 1.44 | N 1.28 | P 1.09 | Q 1.45 | R 0.848 | S 1.39 | T 1.51 | V 1.62 | W 1.54 | Y 1.58
M33: A 0.574 | C 2.62 | D 0.558 | E 0.678 | F 1.18 | G 0.452 | H 0.293 | I 1.6 | K -0.407 | L 1.43 | N 0.297 | P 0.368 | Q 0.352 | S 0.431 | T 0.664 | V 1.46 | W 1.36 | Y 1.11
E34: A 1.03 | C 2.43 | D 0.739 | F 1.82 | G 0.776 | H 1.41 | I 1.67 | K 1.17 | L 1.26 | M 1.33 | N 1.06 | P 0.209 | Q 0.991 | R 1.22 | S 1.28 | T 1.51 | V 1.91 | W 1.54 | Y 1.78
I35: A 0.721 | D 0.68 | E 0.844 | F 1.21 | G 0.722 | H 0.724 | K 0.644 | L 1.07 | M 0.949 | N 0.687 | P 0.562 | Q 0.822 | R 0.522 | S 0.764 | T 0.802 | V 1.03 | W 1.06 | Y 1.24
H36: A 0.796 | C 1.69 | D 0.709 | E 0.92 | F 1.19 | G 0.601 | I 1.66 | K 1.28 | L 1.2 | M 0.945 | N 0.903 | P 0.499 | Q 0.93 | R 1.49 | S 0.832 | T 0.926 | V 1.35 | W 1.24 | Y 1.26
N37: A 0.861 | D 1.02 | E 0.831 | F 1.19 | G 1.02 | H 1.11 | I 1.1 | K 0.81 | L 1.09 | M 1.03 | P 0.635 | Q 0.88 | R 0.716 | S 0.831 | T 0.767 | V 0.9

Source: the MegaScale stability set (Tsuboyama et al. 2023)
